# Results published in US20250019452A1 (Sanofi, published 2025).
# T1: IL-1R3 (human, UniProt Q9NPH3 21-570)
# T1 sequence (looked up): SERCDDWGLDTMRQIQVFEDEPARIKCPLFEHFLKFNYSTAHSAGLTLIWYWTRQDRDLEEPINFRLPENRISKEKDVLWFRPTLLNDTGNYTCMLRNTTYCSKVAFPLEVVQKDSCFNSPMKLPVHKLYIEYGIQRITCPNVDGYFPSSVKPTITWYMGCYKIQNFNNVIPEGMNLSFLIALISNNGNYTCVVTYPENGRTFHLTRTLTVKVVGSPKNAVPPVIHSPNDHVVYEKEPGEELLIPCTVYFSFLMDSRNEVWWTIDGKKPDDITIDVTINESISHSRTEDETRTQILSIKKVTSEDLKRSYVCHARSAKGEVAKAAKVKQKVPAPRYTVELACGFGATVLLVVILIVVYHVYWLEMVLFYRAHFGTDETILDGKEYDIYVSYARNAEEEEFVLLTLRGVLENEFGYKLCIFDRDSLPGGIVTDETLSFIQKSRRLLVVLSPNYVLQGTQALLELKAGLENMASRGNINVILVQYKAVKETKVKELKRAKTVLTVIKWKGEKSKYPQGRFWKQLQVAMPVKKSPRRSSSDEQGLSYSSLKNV
# B1: anti-IL-1R3-IgG4-P-FALA (antibody)
# heavy: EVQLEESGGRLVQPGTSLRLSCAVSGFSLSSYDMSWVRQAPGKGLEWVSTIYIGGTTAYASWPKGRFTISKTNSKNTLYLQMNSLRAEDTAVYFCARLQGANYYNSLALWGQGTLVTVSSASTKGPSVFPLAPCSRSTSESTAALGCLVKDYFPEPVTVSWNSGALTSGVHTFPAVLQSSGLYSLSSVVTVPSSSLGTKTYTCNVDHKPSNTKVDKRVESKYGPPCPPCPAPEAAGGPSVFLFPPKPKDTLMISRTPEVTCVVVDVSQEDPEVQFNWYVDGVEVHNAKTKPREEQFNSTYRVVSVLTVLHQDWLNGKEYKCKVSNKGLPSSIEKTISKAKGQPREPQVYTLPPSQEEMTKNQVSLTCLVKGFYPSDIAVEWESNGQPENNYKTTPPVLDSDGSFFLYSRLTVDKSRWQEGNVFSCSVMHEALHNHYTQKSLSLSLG
# light: DVQMTQSPSSLSASVGDRVTITCQASQSIYSFLSWYQQKPGQAPKLLIYAASDLESGVPSRFSGSGSGTDFTLTISSLQPEDFATYYCQSNYIIDYGAFGQGTKVVIKRTVAAPSVFIFPPSDEQLKSGTASVVCLLNNFYPREAKVQWKVDNALQSGNSQESVTEQDSKDSTYSLSSTLTLSKADYEKHKVYACEVTHQGLSSPVTKSFNRGEC
# notes: Humanized antibody, human IgG4 backbone with S228P, F234A, L235A (EU) in the Fc region; also called anti-IL-1R3 IgG4-P-FALA Ab; aIL-1R3-IgG4; copies: 2 + 2
# Experiments:
# IL-1R3 = target: T1, IL-1R3; assay: cell-based or functional assay
# [1] = target: T2, FcgammaRIIIa (V158) expressed on Jurkat effector cells (UniProt P08637 17-254, limits assumed); assay: cell based ADCC reporter gene assay, Jurkat FcgammaRIIIa (V158) effector cells with CHO IL1R3 target cells
# T2 construct: whole, on cells; also called FcγRIII; Fc receptor of the effector cells
# Procedure: The anti-IL-1R3 antibody in IgG1-LALA and IgG4-P-FALA format was tested for any ADCC activity using a reporter gene assay (iLite ADCC Bioassay #BM5001, SVAR Life Sciences, Malmö). This assay uses reporter-gene-carrying effector cells (Jurkat cells expression FcgammaRIIIa (V158)) that are used in conjunction with target cells that express the specific antigen at constant high levels (i.e. CHO ILIR3 target cells). Binding of the antibody to the target cell and binding of the effector cell to the Fc receptor of the antibody results in expression of the firefly luciferase reporter gene in the effector cell. The promoter of the firefly luciferase in the effector cells includes binding sites for NfkB, AP1, NFAT, CRE and STAT and thus includes the five principal transcription factors of the FcγRIII signal transduction pathway. The effector cells further comprise Renilla luciferase for normalization purposes.
binder,measurement,setting,value
B1,"IL8 release_hIL1b & hIL33 & IL36g, rel IC50 in nM",IL-1R3,8.5 nM
same,"IL8 release_hIL1b & hIL36g, rel IC50 in nM",IL-1R3,2.38 nM
same,"IL8 release_hIL1 beta, rel IC50 in nM",IL-1R3,13.4 nM
same,"IL8 release_hIL33, rel IC50 in nM",IL-1R3,2.34 nM
same,"IL8 release_hIL36g, rel IC50 in nM",IL-1R3,0.45 nM
same,binding result,[1],no binding
